Measured values published in PMC7700883.

What was measured:
[1] = target: ubiquitin aminomethylcoumarin (UniProt P0CG48)
[2] = target: GST-tagged ChlaDUB1_(130–401) (C345A) (Chlamydia trachomatis L2) (UniProt B0B9A0); assay: BLI
[3] = target: GST-tagged ChlaDUB2_(58–339) (C282A) (Chlamydia trachomatis L2) (UniProt B0B999); assay: BLI

Row | Substance | attenuation of Ub-AMC hydrolysis activity against wild type ChlaDUB2(58-339) [1] [%] | Kd [2] [µM] | Kd [3] [µM]
1 | ChlaDUB2_(58–339) W92A (from UniProt B0B999 58-339) (domain or fragment) | 50 |  | 
2 | Lys63-linked diubiquitin (from UniProt P0CG48 1-76) (complex) |  | 117 | 88.9
